Experimental findings from publication PMC7163869 are described below.

The target in this test is Chikungunya virus-like particles (strain 37997) (chikungunya virus (strain 37997)). Put plainly: BLI. For orientation: BLI is a label-free optical method that tracks binding on a fibre tip over time.

One may read the Kd as the equilibrium constant for the complex coming apart. Turning to “Mouse Mxra8 ectodomain 23-296 (from UniProt Q9DBV4 23-296) (domain or fragment)”, the Kd turned out to be 66.4 nM.

B1: Cattle Δmoo Mxra8 ectodomain (domain or fragment)
chain: VLLSSGPSGPATSDRSVVSESTVSWAAGARAVLRCQSPRMVWTQDRLHDRQRVVHWDLSGSKAGGPARRLVDMYSTGEQRVYEPRDRGRLLLPPSAFHDGNFSLFIRAVEETDEGLYTCNLHHHYCHLYESLAVSLEVTDDPRAAGAHWDGEKEVLAVERGAPALLTCVNRAHVWTDRHLEEAQQVVHWDRQPPGVPHDRADRLLDLYASGERRAYGPPFLRDRVAVEADAFARGDFSLLIDPVEPADEGTYSCHLHHHYCGLHERRVFHLRVTEPAARPPPPPRDSPGNGSSHSGAPGPGARDPTLTRGRSVINVIVPEGRAHFFQQ
B1: the Kd came out at 72.3 nM.
